This is an account of results in patent US20220396633A1 (MABPRO A S, published 2022).

The labels stand for the following.
B1: CA9hu-2_HC1LC5 (antibody, V domains shown)
VH: EVQLVESGGGLVQPGGSLKLSCAASGFTFNTNAMHWVRQASGKGLEWVGRIRSKSNNYTTYYADSVKDRFTISRDDSKNTAYLQMNSLKTEDTAVYYCVCGSWFAYWGQGTLVTVSS
VL: DIVMTQSPDSLAVSLGERATINCKSSQSLLNSSNQKNYLAWYQQKPGQPPKLLIYFTSTRQSGVPDRFSGSGSGTDFTLTISSLQAEDVAVYYCQQHYSIPLTFGQGTKLEIK
notes: Humanized variant of IV/18; VH in-frame with human IgG constant domain (allotype G1m17,1), VL in-frame with human kappa constant domain (allotype Km3)
B2: CA9hu-2_HC3LC1 (antibody, V domains shown)
VH: QVQLVESGGGVVQPGGSLRLSCAASGFTFNTNAMHWVRQAPGRGLEWVARIRSKSNNYTTYYADSVKDRFTISRDNSKNTLYLQVNSLRAEDTAVYYCVCGSWFAYWGQGTLVTVSS
VL: B1 VL with I2V, A19V, P49S
notes: as for B1
B3: CA9hu-2_HC3LC2 (antibody, V domains shown)
VH: B2 VH
VL: B1 VL with Y42F, K51N, L53V, S82N, Y93F, K109Q, L110V
notes: as for B1
B4: CA9hu-2_HC4LC2 (antibody, V domains shown)
VH: B2 VH with Q1E, G16R, R43K, V85M
VL: B1 VL with Y42F, K51N, L53V, S82N, Y93F, K109Q, L110V
notes: as for B1
B5: CA9hu-2_HC3LC4 (antibody, V domains shown)
VH: B2 VH
VL: B1 VL with Y42F, L52V, S69T
notes: as for B1
B6: CA9hu-2_HC3LC3 (antibody, V domains shown)
VH: B2 VH
VL: B1 VL with V3Q, Y93F, L110V
notes: as for B1
B7: CA9hu-2_HC3LC5 (antibody, V domains shown)
VH: B2 VH
VL: B1 VL
notes: as for B1
B8: CA9hu-2_HC2LC5 (antibody, V domains shown)
VH: B1 VH with N79S
VL: B1 VL
notes: as for B1
B9: CA9hu-2_HC1LC1 (antibody, V domains shown)
VH: B1 VH
VL: B1 VL with I2V, A19V, P49S
notes: as for B1
B10: CA9hu-2_HC1LC3 (antibody, V domains shown)
VH: B1 VH
VL: B1 VL with V3Q, Y93F, L110V
notes: as for B1
B11: CA9hu-2_HC5LC2 (antibody, V domains shown)
VH: B1 VH with L112T
VL: B1 VL with Y42F, K51N, L53V, S82N, Y93F, K109Q, L110V
notes: as for B1
B12: CA9hu-2_HC5LC5 (antibody, V domains shown)
VH: B1 VH with L112T
VL: B1 VL
notes: as for B1
B13: CA9hu-2_HC5LC4 (antibody, V domains shown)
VH: B1 VH with L112T
VL: B1 VL with Y42F, L52V, S69T
notes: as for B1
B14: CA9hu-2_HC1LC4 (antibody, V domains shown)
VH: B1 VH
VL: B1 VL with Y42F, L52V, S69T
notes: as for B1
B15: CA9hu-2_HC2LC3 (antibody, V domains shown)
VH: B1 VH with N79S
VL: B1 VL with V3Q, Y93F, L110V
notes: as for B1
B16: CA9hu-2_HC1LC2 (antibody, V domains shown)
VH: B1 VH
VL: B1 VL with Y42F, K51N, L53V, S82N, Y93F, K109Q, L110V
notes: as for B1
B17: CA9hu-2_HC2LC4 (antibody, V domains shown)
VH: B1 VH with N79S
VL: B1 VL with Y42F, L52V, S69T
notes: as for B1
B18: CA9hu-2_HC5LC1 (antibody, V domains shown)
VH: B1 VH with L112T
VL: B1 VL with I2V, A19V, P49S
notes: as for B1
B19: CA9hu-2_HC2LC2 (antibody, V domains shown)
VH: B1 VH with N79S
VL: B1 VL with Y42F, K51N, L53V, S82N, Y93F, K109Q, L110V
notes: as for B1
B20: CA9hu-2_HC4LC1 (antibody, V domains shown)
VH: B2 VH with Q1E, G16R, R43K, V85M
VL: B1 VL with I2V, A19V, P49S
notes: as for B1
B21: CA9hu-2_HC4LC3 (antibody, V domains shown)
VH: B2 VH with Q1E, G16R, R43K, V85M
VL: B1 VL with V3Q, Y93F, L110V
notes: as for B1
B22: CA9hu-2_HC2LC1 (antibody, V domains shown)
VH: B1 VH with N79S
VL: B1 VL with I2V, A19V, P49S
notes: as for B1
B23: CA9hu-2_HC5LC3 (antibody, V domains shown)
VH: B1 VH with L112T
VL: B1 VL with V3Q, Y93F, L110V
notes: as for B1
B24: CA9hu-2_HC4LC4 (antibody, V domains shown)
VH: B2 VH with Q1E, G16R, R43K, V85M
VL: B1 VL with Y42F, L52V, S69T
notes: as for B1

Where a chain is given by its changes, count along the chain named.

For the experiment, the target named is CA IX-positive antigen (protein extract of C-33a_CA IX cells) (human, UniProt Q16790 38-459). The experiment in a line: ELISA, antibody 5 ug/ml on coated protein extract of C-33a_CA IX cells versus C-33a_neo. The protocol: To evaluate the antigen-binding specificity, all twenty-five humanized variants of CA9hu-2 were subjected to enzyme-linked immunosorbent assay (ELISA) using either CA IX-positive or CA IX-negative antigen. Antigens were prepared from stably transfected C-33a cell line expressing CA IX (C-33a_CA IX) and parental mock-transfected C-33a cells without CA IX expression (C-33a_neo).
Proteins were extracted from the cell monolayer with RIPA lysis buffer (0.1% deoxycholate, 1% Triton X-100 and protease inhibitor cocktail in PBS). Protein concentrations were determined by bicinchoninic acid assay (ThermoFisher Scientific, Waltham, Mass. USA) according to the manufacturer's instructions. Protein extracts were diluted to final concentration 0.2 mg/ml in PBS. Protein concentration of antigen samples used in screening of antigen-antibody specific interaction tested by ELISA meets the requirements for low detergent content that could otherwise interfere throughout the analysis. 50 μl of either CA IX-positive or CA IX-negative antigen was coated on the surface of microplate wells overnight at 37° C. After washing with PBS-T 0.05% Tween-20 in PBS pH7.2, 50 μl of all humanized variants of CA9hu-2 (diluted to concentration 5 μg/ml in 10% FCS in PBS-T) were added and incubated for 2 h at room temperature. Peroxidase-labeled swine anti-human IgG (diluted 1:5000 in 10% FCS in PBS-T; Sigma-Aldrich, St. Louis, Mo. USA) was used as detector. Parental IV/18 antibody (marked as “mouse Ab”) as well as chimeric HC0LC0 antibody (having the murine variable domains and the human Ig constant domains) were used as reference samples. Results are expressed as a fold of induction and are calculated as O.D. values of absorbance measured at 492 nm from CA IX-positive antigen/O.D. values of absorbance measured at 492 nm from CA IX-negative antigen.
For B1, the binding result is recorded as “binds”. B2: the binding result is reported as “binds”. Take B3: the binding result is on record as “binds”. Next, B4: “binds”; B5: “binds”; B6: “binds”. Regarding B7, the binding result is “binds”. Consider B8, for which the binding result is listed as “binds”. Next, B9: “binds”; B10: “binds”; B11: “binds”. Regarding B12, the binding result is “binds”. The result for B13 reads “binds”.

B14: the binding result is reported as “binds”.

As to B15, the binding result is “binds”.

As for B16, the binding result is “binds”. With B17, the binding result is “binds”. Turning to B18, the binding result was “binds”. As to B19, the binding result is listed as “binds”.

With B20, the binding result is recorded as “binds”. On to B21, for which the binding result was “binds”. Turning to B22, the binding result is given as “binds”. The result for B23 reads “binds”; that for B24, “binds”.
